According to patent US7132274B2, “Method for identifying modulators of CLK-1 and UbiF activity” (priority 2003, dated 2006):

system: E. coli JF496 (ubiF411); experiment: JF496 complementation (growth rescue) assay; assay type: cell-based; settings: C. elegans CLK-1 variants expressed in JF496; growth rate relative to wild type CLK-1
Source text: JF496 is useful for complementation assays using eukaryotic clk-1. As with all other ubi mutants, JF496 has a weak growth in liquid culture, and cannot use succinate as a unique carbon source. These characteristics were used to develop a gain-of-function assay, where JF496 was transformed with a eukaryotic clk-1 (here from C. elegans) and then wild-type growth was identified. Transgenic E. coli ubiF (Kwon et al., 2000 FEMS Microbiol Lett, 186, 157–161), and clk-1 from proteobacteria (Stenmark et al., 2001 J Biol Chem, 276, 33297–33300) have been tested in JF496.
Growth conditions—For complementation assays, plasmids are freshly transformed by electroporation into E. coli JF496 ubiF(DE3) and grown overnight at 37° C. in 5 mL LB with 50 μg/mL ampicillin. The cultures are diluted 1/10 and OD600 measured. A bacterial volume corresponding to an OD600 of 0.03 in 5 mL is taken, centrifuged and resuspended in 100 μl of M9 medium. It is then added into 5 mL M9 containing 1 mM MgSO4, 20 μM CaCl2, 0.5 μg/mL thiamine, 0.12% casamino acids, 40 μg/mL D-L-methionine, 100 μg/mL L-asparagine, trace metals and 50 μg/mL ampicillin. This medium is supplemented with 0.5% glucose or 0.5% succinate. E. coli JF496 is grown at 37° C. for 8 hours. Samples (700-μL) are taken at 2-hour intervals and the OD600 is measured in order to determine the growth rate.
Growth conditions—as described above in Section 6.1
A selection of CLK-1 variants were constructed by site-directed mutagenesis and cloned into the JF496 system to assess their enzymatic activity relative to the wild type. The respective strains of JF496-clk-1 variants were cultured as described and the growth rate of each were measured. The results as shown in Table 4 indicate that certain residues and regions are not tolerant of amino acid substitution (amino acid substitution is indicated by one-letter codes).

| Molecule | Activity in JF496 system |
| --- | --- |
| CDB 717: C. elegans CLK-1 variant, mutation Y119A (protein, UniProt P48376 9-187, looked up, variant Y119A) NADPH-dependent …: AHTAASRQALIEKIIRVDHAGELGADRIYAGQLAVLQGSSVGSVIKKMWDEEKEHLDTMERLAAKHNVPHTVFSPVFSVAAYALGVGSALLGKEGAMACTIAVEELIGQHANDQLKELLADDPETHKELLKILTRLRDEELHHHDTGVEHDGMKAPAYSALKWIIQTGCKGAIAIAEKI | Inactive |
| CDB 699: C. elegans CLK-1 variant, mutation E148A (protein, UniProt P48376 9-187, looked up, variant E148A) NADPH-dependent …: AHTAASRQALIEKIIRVDHAGELGADRIYAGQLAVLQGSSVGSVIKKMWDEEKEHLDTMERLAAKHNVPHTVFSPVFSVAAYALGVGSALLGKEGAMACTIAVEELIGQHYNDQLKELLADDPETHKELLKILTRLRDEALHHHDTGVEHDGMKAPAYSALKWIIQTGCKGAIAIAEKI | Inactive |
| CDB 689: C. elegans CLK-1 variant, mutation C107A (protein, UniProt P48376 9-187, looked up, variant C107A) NADPH-dependent …: AHTAASRQALIEKIIRVDHAGELGADRIYAGQLAVLQGSSVGSVIKKMWDEEKEHLDTMERLAAKHNVPHTVFSPVFSVAAYALGVGSALLGKEGAMAATIAVEELIGQHYNDQLKELLADDPETHKELLKILTRLRDEELHHHDTGVEHDGMKAPAYSALKWIIQTGCKGAIAIAEKI | Active |
| CDB 694: C. elegans CLK-1 variant, mutation E148K (protein, UniProt P48376 9-187, looked up, variant E148K) NADPH-dependent …: AHTAASRQALIEKIIRVDHAGELGADRIYAGQLAVLQGSSVGSVIKKMWDEEKEHLDTMERLAAKHNVPHTVFSPVFSVAAYALGVGSALLGKEGAMACTIAVEELIGQHYNDQLKELLADDPETHKELLKILTRLRDEKLHHHDTGVEHDGMKAPAYSALKWIIQTGCKGAIAIAEKI | Inactive |
| CDB 690: C. elegans CLK-1 variant, mutation C177A (protein, UniProt P48376 9-187, looked up, variant C177A) NADPH-dependent …: AHTAASRQALIEKIIRVDHAGELGADRIYAGQLAVLQGSSVGSVIKKMWDEEKEHLDTMERLAAKHNVPHTVFSPVFSVAAYALGVGSALLGKEGAMACTIAVEELIGQHYNDQLKELLADDPETHKELLKILTRLRDEELHHHDTGVEHDGMKAPAYSALKWIIQTGAKGAIAIAEKI | Active |
| CDB 700: C. elegans CLK-1 variant, mutation C107A/C177A (protein, UniProt P48376 9-187, looked up, variant C107A C177A) NADPH-dependent …: AHTAASRQALIEKIIRVDHAGELGADRIYAGQLAVLQGSSVGSVIKKMWDEEKEHLDTMERLAAKHNVPHTVFSPVFSVAAYALGVGSALLGKEGAMAATIAVEELIGQHYNDQLKELLADDPETHKELLKILTRLRDEELHHHDTGVEHDGMKAPAYSALKWIIQTGAKGAIAIAEKI | Active |
| CDB 710: C. elegans CLK-1 variant, mutation Y90G (protein, UniProt P48376 9-187, looked up, variant Y90G) NADPH-dependent …: AHTAASRQALIEKIIRVDHAGELGADRIYAGQLAVLQGSSVGSVIKKMWDEEKEHLDTMERLAAKHNVPHTVFSPVFSVAAGALGVGSALLGKEGAMACTIAVEELIGQHYNDQLKELLADDPETHKELLKILTRLRDEELHHHDTGVEHDGMKAPAYSALKWIIQTGCKGAIAIAEKI | Active |
| CDB 709: C. elegans CLK-1 variant, mutation Q174A (protein, UniProt P48376 9-187, looked up, variant Q174A) NADPH-dependent …: AHTAASRQALIEKIIRVDHAGELGADRIYAGQLAVLQGSSVGSVIKKMWDEEKEHLDTMERLAAKHNVPHTVFSPVFSVAAYALGVGSALLGKEGAMACTIAVEELIGQHYNDQLKELLADDPETHKELLKILTRLRDEELHHHDTGVEHDGMKAPAYSALKWIIATGCKGAIAIAEKI | Active |
| CDB 715: C. elegans CLK-1 variant, mutation H151A (protein, UniProt P48376 9-187, looked up, variant H151A) NADPH-dependent …: AHTAASRQALIEKIIRVDHAGELGADRIYAGQLAVLQGSSVGSVIKKMWDEEKEHLDTMERLAAKHNVPHTVFSPVFSVAAYALGVGSALLGKEGAMACTIAVEELIGQHYNDQLKELLADDPETHKELLKILTRLRDEELHAHDTGVEHDGMKAPAYSALKWIIQTGCKGAIAIAEKI | Inactive |
| CDB 691: C. elegans CLK-1 variant, mutation E147K (protein, UniProt P48376 9-187, looked up, variant E147K) NADPH-dependent …: AHTAASRQALIEKIIRVDHAGELGADRIYAGQLAVLQGSSVGSVIKKMWDEEKEHLDTMERLAAKHNVPHTVFSPVFSVAAYALGVGSALLGKEGAMACTIAVEELIGQHYNDQLKELLADDPETHKELLKILTRLRDKELHHHDTGVEHDGMKAPAYSALKWIIQTGCKGAIAIAEKI | Active |
| CDB 707: C. elegans CLK-1 variant, mutation E147A (protein, UniProt P48376 9-187, looked up, variant E147A) NADPH-dependent …: AHTAASRQALIEKIIRVDHAGELGADRIYAGQLAVLQGSSVGSVIKKMWDEEKEHLDTMERLAAKHNVPHTVFSPVFSVAAYALGVGSALLGKEGAMACTIAVEELIGQHYNDQLKELLADDPETHKELLKILTRLRDAELHHHDTGVEHDGMKAPAYSALKWIIQTGCKGAIAIAEKI | Active |
| CDB 711: C. elegans CLK-1 variant, mutation S51P (protein, UniProt P48376 9-187, looked up, variant S51P) NADPH-dependent …: AHTAASRQALIEKIIRVDHAGELGADRIYAGQLAVLQGSSVGPVIKKMWDEEKEHLDTMERLAAKHNVPHTVFSPVFSVAAYALGVGSALLGKEGAMACTIAVEELIGQHYNDQLKELLADDPETHKELLKILTRLRDEELHHHDTGVEHDGMKAPAYSALKWIIQTGCKGAIAIAEKI | Active |
| CDB 698: C. elegans CLK-1 variant, mutation I115H (protein, UniProt P48376 9-187, looked up, variant I115H) NADPH-dependent …: AHTAASRQALIEKIIRVDHAGELGADRIYAGQLAVLQGSSVGSVIKKMWDEEKEHLDTMERLAAKHNVPHTVFSPVFSVAAYALGVGSALLGKEGAMACTIAVEELHGQHYNDQLKELLADDPETHKELLKILTRLRDEELHHHDTGVEHDGMKAPAYSALKWIIQTGCKGAIAIAEKI | Inactive |

same assay, conditions: FIG. 6; JF496 transformed with C. elegans clk-1

| Molecule | rescue of JF496 growth defect |
| --- | --- |
| C. elegans clk-1: wild-type C. elegans CLK-1 (DMQ hydroxylase) expressed from pET16 in JF496 (protein, C. elegans; C. elegans CLK-1, wild-type C. elegans CLK-1 (DMQ hydroxylase) expressed from pET16 in JF496) MFRVITRGAHTAASRQALIEKIIRVDHAGELGADRIYAGQLAVLQGSSVGSVIKKMWDEEKEHLDTMERLAAKHNVPHTVFSPVFSVAAYALGVGSALLGKEGAMACTIAVEELIGQHYNDQLKELLADDPETHKELLKILTRLRDEELHHHDTGVEHDGMKAPAYSALKWIIQTGCKGAIAIAEKI | able to rescue the JF496 growth defect |

same assay, conditions: JF496; M9 buffer containing 0.5% glucose

| Molecule | rescuing capacity |
| --- | --- |
| hclk-1: human clk-1 cDNA expressed in JF496 (protein, listed as Homo sapiens, Human CLK-1, human clk-1 cDNA expressed in JF496) MSCAGAAAAPRLWRLRPGARRSLSAYGRRTSVRFRSSGMTLDNISRAAVDRIIRVDHAGEYGANRIYAGQMAVLGRTSVGPVIQKMWDQEKDHLKKFNELMVTFRVRPTVLMPLWNVLGFALGAGTALLGKEGAMACTVAVEESIAHHYNNQIRTLMEEDPEKYEELLQLIKKFRDEELEHHDIGLDHDAELAPAYAVLKSIIQAGCRVAIYLSERL | lower than that of mclk-1 or C. elegans clk-1 |

same assay, conditions: JF496; M9 buffer containing 0.5% glucose; compared with vector pET16 control

| Molecule | rescue of bacterial growth under selective condition |
| --- | --- |
| hclk-1: human clk-1 cDNA expressed in JF496 (protein, listed as Homo sapiens, Human CLK-1, human clk-1 cDNA expressed in JF496) MSCAGAAAAPRLWRLRPGARRSLSAYGRRTSVRFRSSGMTLDNISRAAVDRIIRVDHAGEYGANRIYAGQMAVLGRTSVGPVIQKMWDQEKDHLKKFNELMVTFRVRPTVLMPLWNVLGFALGAGTALLGKEGAMACTVAVEESIAHHYNNQIRTLMEEDPEKYEELLQLIKKFRDEELEHHDIGLDHDAELAPAYAVLKSIIQAGCRVAIYLSERL | rescues bacterial growth |
| E. coli UbiF: E. coli UbiF expressed from a plasmid in JF496 (protein, E. coli; ubiF wildtype allele, E. coli UbiF expressed from a plasmid in JF496) MTNQPTEIAIVGGGMVGGALALGLAQHGFAVTVIEHAEPAPFVADSQPDVRISAISAASVSLLKGLGVWDAVQAMRCHPYRRLETWEWETAHVVFDAAELKLPLLGYMVENTVLQQALWQALEAHPKVTLRVPGSLIALHRHDDLQELELKGGEVIRAKLVIGADGANSQVRQMAGIGVHAWQYAQSCMLISVQCENDPGDSTWQQFTPDGPRAFLPLFDNWASLVWYDSPARIRQLQNMNMAQLQAEIAKHFPSRLGYVTPLAAGAFPLTRRHALQYVQPGLALVGDAAHTIHPLAGQGVNLGYRDVDALIDVLVNARSYGEAWASYPVLKRYQMRRMADNFIMQSGMDLFYAGFSNNLPPLRFMRNLGLMAAERAGVLKRQALKYALGL | rescued bacterial growth |
| mclk-1: mouse clk-1 cDNA expressed in JF496 (protein, listed as Mus musculus, Mouse CLK-1, mouse clk-1 cDNA expressed in JF496) MSAAGAIAAASVGRLRTGVRRPFSEYGRGLIIRCHSSGMTLDNINRAAVDRIIRVDHAGEYGANRIYAGQMAVLGRTSVGPVIQKMWDQEKNHLKKFNELMIAFRVRPTVLMPLWNVAGFALGAGTALLGKEGAMACTVAVEESIANHYNNQIRMLMEEDPEKYEELLQVIKQFRDEELEHHDTGLDHDAELAPAYALLKRIIQAGCSAAIYLSERF | rescues bacterial growth |
